Data published in patent publication US11214614B2, “LTBP complex-specific inhibitors of TGFβ and uses thereof” (Scholar Rock, Inc., priority 2019, dated 2022).

Legend:
Test in all cases: Octet (BLI) binding, IgG captured on AHC tips, antigen at 100 nM
huGARP proTGFβ1 = huGARP proTGFβ1 (Homo sapiens, UniProt P01137); conditions: for ForteBio IgG KD Hu GARP-proTGFβ1 (M) Avid: IgG1-agly, 1:1 fit; for ForteBio IgG KD Hu GARP-proTGFβ1 in solution (M) Avid: Table 10, same assay conditions as Table 9
In short: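 Antibody loaded at 1 μg/mL onto anti-human Fc capture biosensors, then exposed to human GARP-proTGFβ1 at 100 nM in 1× kinetics buffer with 1000 rpm shaking. Association 3 min, dissociation 3 or 5 min; KD from 1:1 local full fit.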

huLTBP1 proTGFβ1 = huLTBP1 proTGFβ1 (Homo sapiens, UniProt P01137+Q14766); conditions: for Hu LTBP1-proTGFβ1 Kon / Hu LTBP1-proTGFβ1 Koff: Table 9, cycle 3; for Hu LTBP1-proTGFβ1 Kon / Hu LTBP1-proTGFβ1 Koff / Affinity for human LTBP1 complexed with proTGFβ1: IgG1-agly; for Hu LTBP1-proTGFβ1 Kon: 1:1 fit; for Hu LTBP1-proTGFβ1 Koff: 5-minute dissociation; for Response, binding to human LTBP-1 proTGFb1: Octet, antibody immobilized (loading sample); for Affinity for human LTBP1 complexed with proTGFβ1: Table 8, Octet
Sequence of huLTBP1 proTGFβ1 (P01137 30-390): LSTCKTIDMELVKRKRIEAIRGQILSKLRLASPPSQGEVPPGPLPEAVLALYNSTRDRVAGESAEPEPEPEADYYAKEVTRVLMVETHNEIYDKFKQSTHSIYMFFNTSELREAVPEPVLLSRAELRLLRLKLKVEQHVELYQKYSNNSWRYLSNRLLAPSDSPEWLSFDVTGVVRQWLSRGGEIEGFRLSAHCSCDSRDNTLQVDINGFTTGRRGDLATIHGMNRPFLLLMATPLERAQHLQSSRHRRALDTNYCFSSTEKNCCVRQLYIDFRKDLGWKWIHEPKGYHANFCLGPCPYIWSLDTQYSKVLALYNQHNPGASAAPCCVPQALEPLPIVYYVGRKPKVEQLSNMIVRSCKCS
Sequence of huLTBP1 proTGFβ1 (Q14766 347-1721 limits assumed): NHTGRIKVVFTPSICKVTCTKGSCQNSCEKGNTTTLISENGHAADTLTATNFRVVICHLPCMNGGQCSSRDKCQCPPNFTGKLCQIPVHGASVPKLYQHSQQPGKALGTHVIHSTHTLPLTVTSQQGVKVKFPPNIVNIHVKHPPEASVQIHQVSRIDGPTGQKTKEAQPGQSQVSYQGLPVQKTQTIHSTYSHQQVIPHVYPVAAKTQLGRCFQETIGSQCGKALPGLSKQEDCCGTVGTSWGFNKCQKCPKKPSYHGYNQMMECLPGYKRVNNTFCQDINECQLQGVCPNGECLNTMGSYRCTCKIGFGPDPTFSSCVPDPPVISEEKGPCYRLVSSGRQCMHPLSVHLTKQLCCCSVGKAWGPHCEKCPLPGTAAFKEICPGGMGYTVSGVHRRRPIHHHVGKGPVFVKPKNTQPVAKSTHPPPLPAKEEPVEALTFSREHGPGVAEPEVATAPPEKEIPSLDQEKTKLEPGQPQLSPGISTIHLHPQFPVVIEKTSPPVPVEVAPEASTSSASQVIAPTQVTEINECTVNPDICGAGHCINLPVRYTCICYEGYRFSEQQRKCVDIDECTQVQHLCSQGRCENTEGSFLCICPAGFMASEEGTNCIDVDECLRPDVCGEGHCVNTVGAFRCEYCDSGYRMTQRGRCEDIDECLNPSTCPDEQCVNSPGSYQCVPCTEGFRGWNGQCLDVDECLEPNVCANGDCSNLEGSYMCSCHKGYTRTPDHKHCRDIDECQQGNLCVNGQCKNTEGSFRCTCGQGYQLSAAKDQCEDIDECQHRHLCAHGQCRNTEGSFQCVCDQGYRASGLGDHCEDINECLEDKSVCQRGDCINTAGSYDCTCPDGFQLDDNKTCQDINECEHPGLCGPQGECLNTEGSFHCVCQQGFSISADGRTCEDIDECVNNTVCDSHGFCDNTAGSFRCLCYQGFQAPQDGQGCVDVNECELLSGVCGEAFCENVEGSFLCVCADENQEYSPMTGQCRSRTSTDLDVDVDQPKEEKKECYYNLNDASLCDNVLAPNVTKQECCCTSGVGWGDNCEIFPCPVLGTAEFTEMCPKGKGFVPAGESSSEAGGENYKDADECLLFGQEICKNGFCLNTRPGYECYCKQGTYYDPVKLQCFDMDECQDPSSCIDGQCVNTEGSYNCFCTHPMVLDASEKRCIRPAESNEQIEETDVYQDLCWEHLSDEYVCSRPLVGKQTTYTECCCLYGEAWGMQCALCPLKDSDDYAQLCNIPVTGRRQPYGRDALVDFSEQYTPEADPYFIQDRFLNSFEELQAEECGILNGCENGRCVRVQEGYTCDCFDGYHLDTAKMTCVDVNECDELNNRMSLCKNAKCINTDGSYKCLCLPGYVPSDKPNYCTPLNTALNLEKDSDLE
In short: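 Antibodies were captured on anti-human Fc biosensors at 1 μg/mL (~7 nM), to a maximum response of 1 nm. Antigen complex was run at a single 100 nM in 1× kinetics buffer, shaking at 1000 rpm. Association was 3 min and dissociation 3 min (5 min in later rounds), with KD from a local, full 1:1 fit.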

huLTBP3 proTGFβ1 = huLTBP3 proTGFβ1 (Homo sapiens, UniProt P01137+Q9NS15); conditions: IgG1-agly; for Hu LTBP3-proTGFβ1 Kon / Hu LTBP3-proTGFβ1 Koff: Table 9, cycle 3; for Hu LTBP3-proTGFβ1 Koff: 5-minute dissociation; for Affinity for human LTBP3 complexed with proTGFβ1: Table 8, Octet
Sequence of huLTBP3 proTGFβ1 (P01137 30-390): as the sequence (P01137 30-390) above
Sequence of huLTBP3 proTGFβ1 (Q9NS15 44-1303): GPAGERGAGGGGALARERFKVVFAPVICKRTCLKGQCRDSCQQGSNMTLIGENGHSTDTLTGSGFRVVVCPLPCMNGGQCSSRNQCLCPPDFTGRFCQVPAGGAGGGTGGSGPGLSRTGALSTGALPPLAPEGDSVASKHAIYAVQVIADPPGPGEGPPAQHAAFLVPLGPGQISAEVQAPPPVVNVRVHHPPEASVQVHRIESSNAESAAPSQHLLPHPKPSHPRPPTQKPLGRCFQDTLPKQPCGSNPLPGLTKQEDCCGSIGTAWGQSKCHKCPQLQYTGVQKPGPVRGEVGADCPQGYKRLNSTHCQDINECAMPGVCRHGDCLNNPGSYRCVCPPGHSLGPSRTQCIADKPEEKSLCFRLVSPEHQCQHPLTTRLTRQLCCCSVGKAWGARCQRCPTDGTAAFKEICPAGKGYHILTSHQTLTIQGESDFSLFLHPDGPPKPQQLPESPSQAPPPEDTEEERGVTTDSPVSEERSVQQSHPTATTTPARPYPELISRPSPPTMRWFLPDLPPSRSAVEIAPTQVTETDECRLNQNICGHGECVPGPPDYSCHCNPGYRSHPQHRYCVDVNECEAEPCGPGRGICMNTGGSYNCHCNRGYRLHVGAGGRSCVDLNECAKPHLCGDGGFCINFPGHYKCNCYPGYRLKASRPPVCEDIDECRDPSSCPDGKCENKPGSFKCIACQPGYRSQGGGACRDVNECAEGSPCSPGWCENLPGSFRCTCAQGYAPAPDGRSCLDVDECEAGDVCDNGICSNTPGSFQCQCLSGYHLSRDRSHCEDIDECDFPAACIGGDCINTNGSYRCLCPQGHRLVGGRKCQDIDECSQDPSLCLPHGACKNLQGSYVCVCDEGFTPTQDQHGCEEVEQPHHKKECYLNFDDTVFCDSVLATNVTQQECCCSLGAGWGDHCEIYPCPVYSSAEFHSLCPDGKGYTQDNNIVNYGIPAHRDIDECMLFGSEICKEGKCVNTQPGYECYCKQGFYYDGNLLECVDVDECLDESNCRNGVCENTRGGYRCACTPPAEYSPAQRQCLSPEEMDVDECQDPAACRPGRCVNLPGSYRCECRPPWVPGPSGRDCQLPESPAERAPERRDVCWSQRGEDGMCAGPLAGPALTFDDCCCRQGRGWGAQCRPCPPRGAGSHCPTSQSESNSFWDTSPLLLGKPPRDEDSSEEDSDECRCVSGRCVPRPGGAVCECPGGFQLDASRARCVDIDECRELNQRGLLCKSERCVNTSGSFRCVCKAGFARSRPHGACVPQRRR
In short: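 Antibodies loaded at 1 μg/mL onto anti-human Fc sensors were exposed to each TGFβ1 complex at 100 nM in kinetics buffer. Association ran 3 min; dissociation was 3 min in one protocol and 5 min in another. KD came from a 1:1 fitting model.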

[1] = Table 9, cycle 3, N.B. = non-binder under conditions of this assay
[2] = N.B. = non-binder under conditions of this assay
[3] = Table 8, P.F. = Poor Fit, N.B. = Non-binder under conditions of this assay

Sequence of huGARP proTGFβ1 (P01137 30-390): as the sequence (P01137 30-390) above
Sequence of huGARP proTGFβ1 (Q14392 18-627 partner limits assumed): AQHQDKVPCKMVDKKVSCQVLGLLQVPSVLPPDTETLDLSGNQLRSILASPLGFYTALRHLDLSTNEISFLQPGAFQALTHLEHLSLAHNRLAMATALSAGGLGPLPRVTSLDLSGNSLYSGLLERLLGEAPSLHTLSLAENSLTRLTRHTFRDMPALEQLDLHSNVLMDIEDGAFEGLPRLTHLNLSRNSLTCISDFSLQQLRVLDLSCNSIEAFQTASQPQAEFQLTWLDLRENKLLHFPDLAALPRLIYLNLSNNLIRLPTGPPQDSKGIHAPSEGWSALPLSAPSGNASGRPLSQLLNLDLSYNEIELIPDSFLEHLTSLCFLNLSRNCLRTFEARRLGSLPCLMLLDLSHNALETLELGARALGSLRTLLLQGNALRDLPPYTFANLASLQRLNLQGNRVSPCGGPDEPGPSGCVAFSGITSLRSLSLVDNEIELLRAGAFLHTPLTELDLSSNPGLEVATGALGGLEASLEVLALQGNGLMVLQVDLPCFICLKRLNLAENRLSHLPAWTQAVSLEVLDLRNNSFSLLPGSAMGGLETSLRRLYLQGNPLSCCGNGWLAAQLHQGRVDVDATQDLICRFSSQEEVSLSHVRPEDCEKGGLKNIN

Row | Molecule | ForteBio IgG KD Hu GARP-proTGFβ1 (M) Avid (huGARP proTGFβ1; [1]) | ForteBio IgG KD Hu GARP-proTGFβ1 in solution (M) Avid (huGARP proTGFβ1; [2]) | Hu LTBP1-proTGFβ1 Kon (huLTBP1 proTGFβ1) | Hu LTBP1-proTGFβ1 Koff (huLTBP1 proTGFβ1) | Hu LTBP3-proTGFβ1 Kon (huLTBP3 proTGFβ1; 1:1 fit) | Hu LTBP3-proTGFβ1 Koff (huLTBP3 proTGFβ1) | ForteBio IgG KD Hu GARP-proTGFβ1 (M) Avid (huGARP proTGFβ1; [3]) | Response, binding to human LTBP-1 proTGFb1 (huLTBP1 proTGFβ1) | Affinity for human LTBP1 complexed with proTGFβ1 (huLTBP1 proTGFβ1) | Affinity for human LTBP3 complexed with proTGFβ1 (huLTBP3 proTGFβ1) | ForteBio IgG KD Hu LTBP3-proTGFβ1 (M) Avid (huLTBP3 proTGFβ1; Table 8, 1:1 fit, P.F. = Poor Fit, N.B. = Non-binder under conditions of this assay)
1 | SR-AB42: cycle 3 antibody, lineage SR-AB23; CDRs SEQ ID NO: 166-171; HCVR SEQ ID NO: 318, LCVR SEQ ID NO: 319 (antibody, V domains shown) VH: QVQLVESGGGVVQPGRSLRLSCAASGFTFRSYVMHWVRQAPGKGLEWVAVISHEGSLKYYADSVKGRFTISRDNSKNTLYLQMNSLRAEDTAVYYCARPRIAARRGGFGYWGQGTLVTVSS VL: NFMLTQPHSVSESPGKTVTISCTRSSGNIDNNYVQWYQQRPGSSPTTVIYEDNQRPSGVPDRFSGSIDSSSNSASLTISGLKTEDEADYYCQSYDYDTQGVVFGGGTKLTVL | N.B. | N.B. | 154000 M⁻¹ s⁻¹ | 6e-05 s⁻¹ | 232000 M⁻¹ s⁻¹ | 6e-05 s⁻¹ |  |  |  |  | 
2 | SR-AB23: second-round (CDR-H3 mutagenesis) antibody, lineage SR-AB14; CDRs SEQ ID NO: 116-121 (antibody, V domains shown) VH: QVQLVESGGGVVQPGRSLRLSCAASGFTFRSYVMHWVRQAPGKGLEWVAVISHEGSLKYYADSVKGRFTISRDNSKNTLYLQMNSLRAEDTAVYYCARPRIAARRGGFGYWGQGTLVTVSS VL: NFMLTQPHSVSESPGKTVTISCTRSSGNIDNNYVQWYQQRPGSSPTTVIYEDNQRPSGVPDRFSGSIDSSSNSASLTISGLKTEDEADYYCQSYDSDNQGVVFGGGTKLTVL |  |  |  |  |  |  | N.B. | 0.3449 nm | single digit nM | single digit nM | 
3 | SR-AB22: second-round (CDR-H3 mutagenesis) antibody, lineage SR-AB14; CDRs SEQ ID NO: 108-113 (antibody, V domains shown) VH: QVQLVESGGGVVQPGRSLRLSCAASGFTFRSYVMHWVRQAPGKGLEWVAVISHEGSLKYYADSVKGRFTISRDNSKNTLYLQMNSLRAEDTAVYYCAVPRIAARRGGFGYWGQGTLVTVSS VL: NFMLTQPHSVSESPGKTVTISCTRSSGNIDNNYVQWYQQRPGSSPTTVIYEDNQRPSGVPDRFSGSIDSSSNSASLTISGLKTEDEADYYCQSYDSDNQGVVFGGGTKLTVL |  |  |  |  |  |  | P.F. | 0.4317 nm | single digit nM | single digit nM | P.F.
4 | SR-AB63: cycle 3 antibody, lineage SR-AB26; CDRs SEQ ID NO: 292-297; HCVR SEQ ID NO: 360, LCVR SEQ ID NO: 361 (antibody, V domains shown) VH: QLQLQESGPGLVKPSETLSLTCTVSGGSIRSSSYYWGWIRQPPGKGLEWIGSISYSATTYYNPSLKSRVTISVDTSKNQFSLKLSSVTAADTAVYYCAGDPSYDSIAGMQVWGQGTTVTVSS VL: DIQLTQSPSSLSASVGDRVTITCRASQSISSYLNWYQQKPGKAPKLLIYAASNLQSGVPSRFSGSGSGTDFTLTISSLQPEDFATYYCQQSFDWPLTFGGGTKVEIK | N.B. | N.B. | 118000 M⁻¹ s⁻¹ | 7.24e-05 s⁻¹ | 159000 M⁻¹ s⁻¹ | 7.84e-05 s⁻¹ |  |  |  |  | 
